Values quoted from earlier work, collected in patent US20080181869A1, “THERAPEUTICS TO FACILITATE CELL TRANSPLANTATION FOR LIVER DISEASE” (priority 2006, published 2008).

Columns and labels:
[1] = system: hepatic stellate cells (HSCs); conditions: rat CCl4 model of liver damage
[2] = in vivo
[3] = system: rat model of hypertension
lung fibroblasts = conditions: in vitro
gene for TGF-β1 = conditions: bleomycin-induced model of lung fibrosis, exogenous interferon-γ
liver = conditions: after hepatic resection
tumor cell = conditions: in vitro or in vivo studies

relaxin
collagen deposition by hepatic stellate cells [1]: inhibit collagen deposition
adverse events [2]: few adverse events
cardiac and renal fibrosis [3]: reversing cardiac and renal fibrosis

interferon-γ: interferon that inhibits proliferation of lung fibroblasts
proliferation of lung fibroblasts (lung fibroblasts): inhibits the proliferation of lung fibroblasts in a dose-dependent manner
synthesis of protein in fibroblasts (lung fibroblasts): reduces the synthesis of protein in fibroblasts
transcription of the gene for TGF-β1 (gene for TGF-β1): down-regulated

B1: follistatin: peptide inhibitor of Activin A, a member of the transforming growth factor-beta superfamily (protein, UniProt P19883 30-344, looked up)
Follistatin: GNCWLRQAKNGRCQVLYKTELSKEECCSTGRLSTSWTEEDVNDNTLFKWMIFNGGAPNCIPCKETCENVDCGPGKKCRMNKKNKPRCVCAPDCSNITWKGPVCGLDGKTYRNECALLKARCKEQPELEVQYQGRCKKTCRDVFCPGSSTCVVDQTNNAYCVTCNRICPEPASSEQYLCGNDGVTYSSACHLRKATCLLGRSIGLAYEGKCIKAKSCEDIQCTGGKKCLWDFKVGRGRCSLCDELCPDSKSDEPVCASDNATYASECAMKEAACSSGVLLEVKHSGSCNSISEDTEEEEEDEDQDYSFPISSILEW
TGF-β-induced secretion of collagen from HSC (HSC): inhibit TGF-β-induced secretion of collagen
reduction in fibrosis (CCl4-exposed rats; CCl4-exposed rats treated with the peptide): 32%
decrease in hepatocyte apoptosis (CCl4-exposed rats; CCl4-exposed rats, during treatment): 87%
time of maximal effect on hepatocyte apoptosis (CCl4-exposed rats; week of follistatin treatment): 4 week
liver weight (liver): significantly increases liver weight
tumor cell growth (tumor cell): did not accelerate tumor cell growth
